Data: PMC7801473 (2021)

B1: NLRP1^CARD (M2H fusion) [human] / ASC^CARD (M2H fusion) [human] (parent complex)
chain 1: DAPQLLHFVDQYREQLIARVTSVEVVLDKLHGQVLSQEQYERVLAENTRPSQMRKLFSLSQSWDRKCKDGLYQALKETHPHLIMELWEKG
chain 2: AAKPGLHFIDQHRAALIARVTNVEWLLDALYGKVLTDEQYQAVRAEPTNPSKMRKLFSFTPAWNWTCKDLLLQALRESQSYLVEDLERS
B2: ASC^CARD (M2H fusion) [human] / NLRP1^CARD (M2H fusion) [human] (parent complex)
chain 1: B1 chain 2
chain 2: B1 chain 1

Variants of: B1
Experiment: M2H (mammalian two-hybrid, luciferase); HEK293T cells; GAL(DBD)-ASC^CARD with VP16-NLRP1^CARD; luciferase normalized to Renilla; parent: 3; read off a plot

First: chain 1 R19A, chain 1 R49A
Second: chain 1 R19A
The response of the first is higher: ~1.8 fold of negative control for the first, ~1.1 fold of negative control for the second.

First: chain 1 Q37A, chain 1 E41R
Second: chain 1 R54A
The response of the first is higher: ~1.7 fold of negative control for the first, ~1.5 fold of negative control for the second.

Compared with chain 1 E24R, chain 1 D28K, chain 1 H81E is higher in response: ~0.77 fold of negative control for the first, ~0.98 fold of negative control for the second.

With chain 1 W63G, chain 1 D64K the response was ~0.97 fold of negative control.

Variants of: B2
Experiment: M2H (mammalian two-hybrid, luciferase); HEK293T cells; GAL(DBD)-NLRP1^CARD with VP16-ASC^CARD; luciferase normalized to Renilla; parent: 2.1; read off a plot

First: chain 1 D28K
Second: chain 1 N22A, chain 1 E24R
The response of the first is lower: ~0.78 fold of negative control for the first, ~0.8 fold of negative control for the second.

Going from chain 1 R19A, chain 1 T21A to chain 1 W63G, chain 1 N64A, the response rises from ~1.1 fold of negative control to ~1.2 fold of negative control.

First: chain 1 R54E
Second: chain 1 D37A, chain 1 E38A
The response of the first is lower: ~0.87 fold of negative control for the first, ~1.4 fold of negative control for the second.

With chain 1 R13D the response was ~0.57 fold of negative control.
